The values below come from US20240124535A1 (Molecular Partners, published 2024).

In assay [1] the target is T1, cynomolgus monkey serum albumin (cynomolgus monkey (Macaca fascicularis), UniProt A2V9Z4 25-608). Briefly: ELISA, serum albumin immobilized on plate, in PBST-C. As to the method:
(§1) Samples of proteins of Example 2 were subjected to ELISA serum albumin cross-reactivity analyses as described in WO2016156596. 100 μl of 20 nM serum albumin in PBS per well were immobilized in a Maxisorp plate (Nunc, Denmark) overnight at 4° C. After washing 5 times with 300 μl PBST (PBS supplemented with 0.1% Tween 20), the wells were blocked with 300 μl PBST-C(PBST supplemented with 0.25% casein) for 2 h at room temperature with shaking at 450 rpm on a Titramax 1000 shaker (Heidolph, Germany). After washing 5 times as described above, 100 μl/well or 50 μl/well proteins #2, #3, or #4 (concentrations ranging from 100 nM to 0.01 pM for each protein) in PBST-C were applied and incubated for 2 h at room temperature with shaking at 450 rpm. After washing 5 times as described above, binding of the proteins was detected using 100 μl rabbit anti-designed ankyrin repeat domain monoclonal antibody in PBST-C for 1 h at room temperature with shaking at 450 rpm. After washing 5 times as described above, bound anti-designed ankyrin repeat domain antibody was detected using 100 μl/well goat anti-rabbit IgG-HRP conjugate in PBST-C for 1 h at room temperature with shaking at 450 rpm. After washing 5 times as described above, the ELISA was then developed using 100 μl BM soluble blue POD substrate (Roche, Switzerland), diluted 1:4 in water. The reaction was stopped after 5 min using 100 μl 1 M H2504. The OD (OD 450 nm-OD 620 nm) was then recorded. EC 50 values were determined using Graph Pad Prism (Table 3). […] The measured EC₅₀ values for cynomolgus monkey serum albumin binding are below 20 nM for proteins #2, #3, and #4.
Background: In an ELISA, binding on a coated surface is turned into a signal by an enzyme label.

The target in assay [2] is T2, human serum albumin (human, UniProt P02768 25-609). The description is as above. As to the method: as §1
Assay [3] has as its target T3, mouse serum albumin (mouse, UniProt P07724 25-608). The description is as above. As to the method: as §1
Assay [4] deals with T1, cynomolgus monkey serum albumin. Described as above. As to the method:
as §1
This is another data set of the same source.

Assay [5] addresses T2, human serum albumin. The assay is described as above. As to the method: as §1
This is another data set of the same source.

The target of assay [6] is T3, mouse serum albumin. The description is as above. As to the method: as §1
This is another data set of the same source.

Assay [7] concerns the target T2, human serum albumin. Description: SPR, ProteOn system (BioRad), in PBS. As to the method:
Affinity of proteins of Example 2 to human serum albumin were determined by SPR measurements using a ProteOn system (BioRad) in PBS according to standard procedures known to the person skilled in the art.
A general note: SPR reads the build-up and loss of mass on a sensor chip optically.

As a reminder, the EC50 is the midpoint of the concentration-response curve. By Kd is commonly meant the equilibrium constant for the complex coming apart.

Read-outs that look alike come from different tables or passages of the source.

T2 sequence (P02768 25-609 limits assumed): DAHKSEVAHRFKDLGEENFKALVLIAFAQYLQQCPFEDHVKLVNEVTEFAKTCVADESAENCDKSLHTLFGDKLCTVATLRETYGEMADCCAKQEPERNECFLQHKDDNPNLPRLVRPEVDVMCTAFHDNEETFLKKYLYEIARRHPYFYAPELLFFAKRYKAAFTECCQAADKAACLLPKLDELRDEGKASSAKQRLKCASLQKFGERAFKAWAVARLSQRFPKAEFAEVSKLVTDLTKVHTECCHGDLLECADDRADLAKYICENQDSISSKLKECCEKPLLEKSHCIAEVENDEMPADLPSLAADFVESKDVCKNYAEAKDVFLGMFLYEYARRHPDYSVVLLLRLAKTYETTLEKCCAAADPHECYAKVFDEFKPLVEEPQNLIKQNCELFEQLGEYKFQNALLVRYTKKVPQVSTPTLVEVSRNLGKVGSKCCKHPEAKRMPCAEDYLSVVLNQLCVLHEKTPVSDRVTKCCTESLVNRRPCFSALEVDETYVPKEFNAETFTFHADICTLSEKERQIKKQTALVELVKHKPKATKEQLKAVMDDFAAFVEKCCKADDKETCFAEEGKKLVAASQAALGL
T1 sequence (A2V9Z4 25-608 limits assumed): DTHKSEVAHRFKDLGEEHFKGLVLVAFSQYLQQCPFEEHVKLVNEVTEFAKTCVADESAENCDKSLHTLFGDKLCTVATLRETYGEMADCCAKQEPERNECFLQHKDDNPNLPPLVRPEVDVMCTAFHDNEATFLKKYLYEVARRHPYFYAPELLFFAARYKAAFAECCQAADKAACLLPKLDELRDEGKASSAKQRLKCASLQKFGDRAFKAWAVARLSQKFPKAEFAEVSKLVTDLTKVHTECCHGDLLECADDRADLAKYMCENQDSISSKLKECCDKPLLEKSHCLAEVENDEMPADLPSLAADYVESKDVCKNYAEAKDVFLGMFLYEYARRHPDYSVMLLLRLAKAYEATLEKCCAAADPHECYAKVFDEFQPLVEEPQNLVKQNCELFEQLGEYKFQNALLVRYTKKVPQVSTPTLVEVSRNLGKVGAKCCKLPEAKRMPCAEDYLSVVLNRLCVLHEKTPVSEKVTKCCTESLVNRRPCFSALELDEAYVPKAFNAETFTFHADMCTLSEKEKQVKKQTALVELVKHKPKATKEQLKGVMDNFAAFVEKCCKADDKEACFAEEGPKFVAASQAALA

B1: Protein #2 (SEQ ID NO: 2 with a His-tag (SEQ ID NO: 1) fused to its N-terminus) (designed binder)
chain: MRGSHHHHHHGSDLGKKLLEAARAGQDDEVRELLKAGADVNAKDYFSHTPLHLAARNGHLKIVEVLLKAGADVNAKDFAGKTPLHLAANEGHLEIVEVLLKAGADVNAQDIFGKTPADIAADAGHEDIAEVLQKAA
Take B1: the EC50 in assay [1] is < 20 nM; in the assay with human serum albumin [2] it was < 1 nM; with mouse serum albumin [3] it was < 30 nM; in assay [4], 2.8 nM; with human serum albumin [5], 0.32 nM; with mouse serum albumin [6], 9.6 nM. For the same molecule, binding in the assay with human serum albumin [7] was characterised by a dissociation constant (Kd) of 31.1 nM.

B2: Protein #3 (SEQ ID NO: 3 with a His-tag (SEQ ID NO: 1) fused to its N-terminus) (designed binder)
chain: MRGSHHHHHHGSDLGKKLLEAARAGQDDEVRELLKAGADVNAKDYFSHTPLHLAARNGHLKIVEVLLKAGADVNAKDFAGKTPLHLAAADGHLEIVEVLLKAGADVNAQDIFGKTPADIAADAGHEDIAEVLQKAA
For B2, the EC50 is < 20 nM in assay [1]; < 1 nM with human serum albumin [2]; < 30 nM with mouse serum albumin [3]; 6.8 nM in assay [4]; 0.64 nM in the assay with human serum albumin [5]; 14.7 nM with mouse serum albumin [6]. This molecule also came in with a Kd with human serum albumin [7] of 35.5 nM.

B3: Protein #4 (SEQ ID NO: 4 with a His-tag (SEQ ID NO: 1) fused to its N-terminus) (designed binder)
chain: MRGSHHHHHHGSDLGKKLLEAARAGQDDEVRELLKAGADVNAKDYFSHTPLHLAARNGHLKIVEVLLKAGADVNAKDFAGKTPLHLAADAGHLEIVEVLLKAGADVNAQDIFGKTPADIAADAGHEDIAEVLQKAA
Regarding B3, the EC50 in assay [1] is < 20 nM; with human serum albumin [2], < 1 nM; in the assay with mouse serum albumin [3], < 30 nM; in assay [4], 13.1 nM; with human serum albumin [5], 0.84 nM; in the assay with mouse serum albumin [6], 24 nM. The molecule also yielded a Kd in the assay with human serum albumin [7] of 34.4 nM.
